Reference: PMC3896865
Where two headings read alike, the source gives them in different places.

Columns and labels:
Assay in all cases: ITC
[1] = target: T1, EGR1 DB_WT (Zif268 DNA-binding domain) (human, UniProt P18146 331-430)
[2] = target: T1, EGR1 DB_WT (Zif268 DNA-binding domain); remark: listed apart in the source
[3] = target: T1, EGR1 DB_WT (Zif268 DNA-binding domain); remark: listed apart in the source
[4] = target: T1, EGR1 DB_WT (Zif268 DNA-binding domain); remark: listed apart in the source
[5] = target: T1, EGR1 DB_WT (Zif268 DNA-binding domain); remark: listed apart in the source
[6] = target: T1, EGR1 DB_WT (Zif268 DNA-binding domain); remark: listed apart in the source
EGR1 DB_H382A = EGR1 DB_H382A (human, UniProt P18146 331-430, H382A)
EGR1 DB_H382E = EGR1 DB_H382E (human, UniProt P18146 331-430, H382E)
EGR1 DB_H382K = EGR1 DB_H382K (human, UniProt P18146 331-430, H382K)
EGR1 DB_H382R = EGR1 DB_H382R (human, UniProt P18146 331-430, H382R)
[7] = target: T1, EGR1 DB_WT (Zif268 DNA-binding domain); remark: listed apart in the source
[8] = target: T1, EGR1 DB_WT (Zif268 DNA-binding domain); remark: listed apart in the source
[9] = target: T1, EGR1 DB_WT (Zif268 DNA-binding domain); remark: listed apart in the source
[10] = target: T1, EGR1 DB_WT (Zif268 DNA-binding domain); remark: listed apart in the source

B1: ZRE duplex (15-mer) (dsDNA)
DNA 1: ATAGCGTGGGCGTTT
DNA 2: AAACGCCCACGCTAT
B1 showed a Kd [1] of 421 nM, a Kd [2] of 324 nM and a Kd [3] of 758 nM. It also gave a Kd [4] of 755 nM, a Kd [5] of 266 nM and a Kd [6] of 345 nM. For the same binder, the Kd (EGR1 DB_H382A) was 1610 nM, the Kd (EGR1 DB_H382E) was 2300 nM and the Kd (EGR1 DB_H382K) was 2260 nM. For the same binder, the Kd (EGR1 DB_H382R) was 2040 nM, the Kd [7] was 271 nM and the Kd [8] was 1030 nM. It also gave a Kd [9] of 314 nM and a Kd [10] of 1330 nM.
